According to IntAct's records for PubMed 16873060:

B1: Protein PML (Homo sapiens), P29590 (parent)
chain: MEPAPARSPRPQQDPARPQEPTMPPPETPSEGRQPSPSPSPTERAPASEEEFQFLRCQQCQAEAKCPKLLPCLHTLCSGCLEASGMQCPICQAPWPLGADTPALDNVFFESLQRRLSVYRQIVDAQAVCTRCKESADFWCFECEQLLCAKCFEAHQWFLKHEARPLAELRNQSVREFLDGTRKTNNIFCSNPNHRTPTLTSIYCRGCSKPLCCSCALLDSSHSELKCDISAEIQQRQEELDAMTQALQEQDSAFGAVHAQMHAAVGQLGRARAETEELIRERVRQVVAHVRAQERELLEAVDARYQRDYEEMASRLGRLDAVLQRIRTGSALVQRMKCYASDQEVLDMHGFLRQALCRLRQEEPQSLQAAVRTDGFDEFKVRLQDLSSCITQGKDAAVSKKASPEAASTPRDPIDVDLPEEAERVKAQVQALGLAEAQPMAVVQSVPGAHPVPVYAFSIKGPSYGEDVSNTTTAQKRKCSQTQCPRKVIKMESEEGKEARLARSSPEQPRPSTSKAVSPPHLDGPPSPRSPVIGSEVFLPNSNHVASGAGEAEERVVVISSSEDSDAENSSSRELDDSSSESSDLQLEGPSTLRVLDENLADPQAEDRPLVFFDLKIDNETQKISQLAAVNRESKFRVVIQPEAFFSIYSKAVSLEVGLQHFLSFLSSMRRPILACYKLWGPGLPNFFRALEDINRLWEFQEAISGFLAALPLIRERVPGASSFKLKNLAQTYLARNMSERSAMAAVLAMRDLCRLLEVSPGPQLAQHVYPFSSLQCFASLQPLVQAAVLPRAEARLLALHNVSFMELLSAHRRDRQGGLKKYSRYLSLQTTTLPPAQPAFNLQALGTYFEGLLEGPALARAEGVSTPLAGRGLAERASQQS

Variants of: B1
Details: with csk21_human CSNK2A1, P68400
Sequence of csk21_human CSNK2A1, P68400 (P68400 whole entry, looked up): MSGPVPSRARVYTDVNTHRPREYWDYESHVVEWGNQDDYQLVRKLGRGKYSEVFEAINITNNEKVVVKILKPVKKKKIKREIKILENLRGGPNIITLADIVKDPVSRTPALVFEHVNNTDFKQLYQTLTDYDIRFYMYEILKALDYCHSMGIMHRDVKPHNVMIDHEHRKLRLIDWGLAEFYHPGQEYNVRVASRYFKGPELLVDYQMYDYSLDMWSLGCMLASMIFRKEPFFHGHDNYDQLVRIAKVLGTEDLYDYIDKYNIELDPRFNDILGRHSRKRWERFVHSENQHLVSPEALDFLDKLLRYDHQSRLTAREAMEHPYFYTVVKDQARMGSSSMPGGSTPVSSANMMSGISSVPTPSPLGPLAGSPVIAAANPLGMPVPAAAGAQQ

Row | effect of a mutation on the interaction | Variant
1 | decreasing interaction | S518A
